Consider four substances from IntAct's records for PubMed 19098916.

For this assay, the target named is brr2_yeast BRR2 (UniProt P32639).
Chain of brr2_yeast BRR2 (P32639 whole entry): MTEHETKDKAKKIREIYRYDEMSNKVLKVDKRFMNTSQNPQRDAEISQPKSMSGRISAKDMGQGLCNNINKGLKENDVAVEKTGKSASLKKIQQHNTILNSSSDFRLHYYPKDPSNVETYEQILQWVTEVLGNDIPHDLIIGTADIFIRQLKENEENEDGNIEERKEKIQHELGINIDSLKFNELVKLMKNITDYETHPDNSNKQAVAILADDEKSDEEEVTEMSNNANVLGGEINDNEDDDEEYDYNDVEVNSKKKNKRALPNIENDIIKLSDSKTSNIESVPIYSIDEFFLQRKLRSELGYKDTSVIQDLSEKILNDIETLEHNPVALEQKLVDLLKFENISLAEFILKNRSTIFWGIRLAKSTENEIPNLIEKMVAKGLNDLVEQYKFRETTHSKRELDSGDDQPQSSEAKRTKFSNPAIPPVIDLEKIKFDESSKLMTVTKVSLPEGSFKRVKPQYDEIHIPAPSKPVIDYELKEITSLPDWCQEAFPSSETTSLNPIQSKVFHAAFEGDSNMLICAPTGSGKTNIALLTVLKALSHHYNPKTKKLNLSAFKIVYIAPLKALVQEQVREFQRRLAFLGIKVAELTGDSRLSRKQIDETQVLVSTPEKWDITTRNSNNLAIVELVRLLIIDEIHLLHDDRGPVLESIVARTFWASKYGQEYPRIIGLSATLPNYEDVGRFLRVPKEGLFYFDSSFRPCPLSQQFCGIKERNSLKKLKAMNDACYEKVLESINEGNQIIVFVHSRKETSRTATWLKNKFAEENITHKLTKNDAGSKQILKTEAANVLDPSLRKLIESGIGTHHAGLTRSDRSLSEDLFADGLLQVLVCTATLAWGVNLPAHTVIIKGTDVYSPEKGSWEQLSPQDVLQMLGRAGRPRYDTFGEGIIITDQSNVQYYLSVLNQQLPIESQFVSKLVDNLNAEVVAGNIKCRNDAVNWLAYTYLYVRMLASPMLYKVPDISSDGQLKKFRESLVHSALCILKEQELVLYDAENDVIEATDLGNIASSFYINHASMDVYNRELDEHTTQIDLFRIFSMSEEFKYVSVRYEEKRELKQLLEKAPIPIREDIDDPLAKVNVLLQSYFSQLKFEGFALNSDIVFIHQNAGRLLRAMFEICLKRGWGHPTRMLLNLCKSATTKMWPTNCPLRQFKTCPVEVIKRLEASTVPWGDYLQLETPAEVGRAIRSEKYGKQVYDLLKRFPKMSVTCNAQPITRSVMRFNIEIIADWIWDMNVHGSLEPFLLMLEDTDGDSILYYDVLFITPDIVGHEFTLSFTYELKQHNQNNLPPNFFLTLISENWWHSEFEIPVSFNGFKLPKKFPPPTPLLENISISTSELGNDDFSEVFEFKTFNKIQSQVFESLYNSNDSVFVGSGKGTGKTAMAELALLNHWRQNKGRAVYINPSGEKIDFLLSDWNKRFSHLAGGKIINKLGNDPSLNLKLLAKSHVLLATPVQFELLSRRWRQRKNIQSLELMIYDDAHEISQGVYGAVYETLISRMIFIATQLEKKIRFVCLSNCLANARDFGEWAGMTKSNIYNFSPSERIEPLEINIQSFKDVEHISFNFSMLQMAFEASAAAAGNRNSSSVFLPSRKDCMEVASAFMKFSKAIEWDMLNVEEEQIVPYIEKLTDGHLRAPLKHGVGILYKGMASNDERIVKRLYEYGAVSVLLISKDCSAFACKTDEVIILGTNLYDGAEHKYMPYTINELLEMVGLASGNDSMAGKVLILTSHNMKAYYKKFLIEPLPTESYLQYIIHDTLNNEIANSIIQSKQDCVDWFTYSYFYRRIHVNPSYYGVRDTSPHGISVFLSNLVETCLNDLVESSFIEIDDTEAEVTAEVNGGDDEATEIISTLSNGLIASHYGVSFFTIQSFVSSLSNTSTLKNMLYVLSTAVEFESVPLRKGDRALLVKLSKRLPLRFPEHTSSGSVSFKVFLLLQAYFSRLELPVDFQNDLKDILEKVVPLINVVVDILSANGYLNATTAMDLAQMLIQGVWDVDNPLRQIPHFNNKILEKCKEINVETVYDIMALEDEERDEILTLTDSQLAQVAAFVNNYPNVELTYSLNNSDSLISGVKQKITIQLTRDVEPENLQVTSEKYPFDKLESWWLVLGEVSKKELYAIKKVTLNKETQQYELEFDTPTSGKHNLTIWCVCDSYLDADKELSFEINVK

Chain of Pre-mRNA-splicing factor 8 (Saccharomyces cerevisiae), P33334 R2388K (P33334 whole entry R2388K): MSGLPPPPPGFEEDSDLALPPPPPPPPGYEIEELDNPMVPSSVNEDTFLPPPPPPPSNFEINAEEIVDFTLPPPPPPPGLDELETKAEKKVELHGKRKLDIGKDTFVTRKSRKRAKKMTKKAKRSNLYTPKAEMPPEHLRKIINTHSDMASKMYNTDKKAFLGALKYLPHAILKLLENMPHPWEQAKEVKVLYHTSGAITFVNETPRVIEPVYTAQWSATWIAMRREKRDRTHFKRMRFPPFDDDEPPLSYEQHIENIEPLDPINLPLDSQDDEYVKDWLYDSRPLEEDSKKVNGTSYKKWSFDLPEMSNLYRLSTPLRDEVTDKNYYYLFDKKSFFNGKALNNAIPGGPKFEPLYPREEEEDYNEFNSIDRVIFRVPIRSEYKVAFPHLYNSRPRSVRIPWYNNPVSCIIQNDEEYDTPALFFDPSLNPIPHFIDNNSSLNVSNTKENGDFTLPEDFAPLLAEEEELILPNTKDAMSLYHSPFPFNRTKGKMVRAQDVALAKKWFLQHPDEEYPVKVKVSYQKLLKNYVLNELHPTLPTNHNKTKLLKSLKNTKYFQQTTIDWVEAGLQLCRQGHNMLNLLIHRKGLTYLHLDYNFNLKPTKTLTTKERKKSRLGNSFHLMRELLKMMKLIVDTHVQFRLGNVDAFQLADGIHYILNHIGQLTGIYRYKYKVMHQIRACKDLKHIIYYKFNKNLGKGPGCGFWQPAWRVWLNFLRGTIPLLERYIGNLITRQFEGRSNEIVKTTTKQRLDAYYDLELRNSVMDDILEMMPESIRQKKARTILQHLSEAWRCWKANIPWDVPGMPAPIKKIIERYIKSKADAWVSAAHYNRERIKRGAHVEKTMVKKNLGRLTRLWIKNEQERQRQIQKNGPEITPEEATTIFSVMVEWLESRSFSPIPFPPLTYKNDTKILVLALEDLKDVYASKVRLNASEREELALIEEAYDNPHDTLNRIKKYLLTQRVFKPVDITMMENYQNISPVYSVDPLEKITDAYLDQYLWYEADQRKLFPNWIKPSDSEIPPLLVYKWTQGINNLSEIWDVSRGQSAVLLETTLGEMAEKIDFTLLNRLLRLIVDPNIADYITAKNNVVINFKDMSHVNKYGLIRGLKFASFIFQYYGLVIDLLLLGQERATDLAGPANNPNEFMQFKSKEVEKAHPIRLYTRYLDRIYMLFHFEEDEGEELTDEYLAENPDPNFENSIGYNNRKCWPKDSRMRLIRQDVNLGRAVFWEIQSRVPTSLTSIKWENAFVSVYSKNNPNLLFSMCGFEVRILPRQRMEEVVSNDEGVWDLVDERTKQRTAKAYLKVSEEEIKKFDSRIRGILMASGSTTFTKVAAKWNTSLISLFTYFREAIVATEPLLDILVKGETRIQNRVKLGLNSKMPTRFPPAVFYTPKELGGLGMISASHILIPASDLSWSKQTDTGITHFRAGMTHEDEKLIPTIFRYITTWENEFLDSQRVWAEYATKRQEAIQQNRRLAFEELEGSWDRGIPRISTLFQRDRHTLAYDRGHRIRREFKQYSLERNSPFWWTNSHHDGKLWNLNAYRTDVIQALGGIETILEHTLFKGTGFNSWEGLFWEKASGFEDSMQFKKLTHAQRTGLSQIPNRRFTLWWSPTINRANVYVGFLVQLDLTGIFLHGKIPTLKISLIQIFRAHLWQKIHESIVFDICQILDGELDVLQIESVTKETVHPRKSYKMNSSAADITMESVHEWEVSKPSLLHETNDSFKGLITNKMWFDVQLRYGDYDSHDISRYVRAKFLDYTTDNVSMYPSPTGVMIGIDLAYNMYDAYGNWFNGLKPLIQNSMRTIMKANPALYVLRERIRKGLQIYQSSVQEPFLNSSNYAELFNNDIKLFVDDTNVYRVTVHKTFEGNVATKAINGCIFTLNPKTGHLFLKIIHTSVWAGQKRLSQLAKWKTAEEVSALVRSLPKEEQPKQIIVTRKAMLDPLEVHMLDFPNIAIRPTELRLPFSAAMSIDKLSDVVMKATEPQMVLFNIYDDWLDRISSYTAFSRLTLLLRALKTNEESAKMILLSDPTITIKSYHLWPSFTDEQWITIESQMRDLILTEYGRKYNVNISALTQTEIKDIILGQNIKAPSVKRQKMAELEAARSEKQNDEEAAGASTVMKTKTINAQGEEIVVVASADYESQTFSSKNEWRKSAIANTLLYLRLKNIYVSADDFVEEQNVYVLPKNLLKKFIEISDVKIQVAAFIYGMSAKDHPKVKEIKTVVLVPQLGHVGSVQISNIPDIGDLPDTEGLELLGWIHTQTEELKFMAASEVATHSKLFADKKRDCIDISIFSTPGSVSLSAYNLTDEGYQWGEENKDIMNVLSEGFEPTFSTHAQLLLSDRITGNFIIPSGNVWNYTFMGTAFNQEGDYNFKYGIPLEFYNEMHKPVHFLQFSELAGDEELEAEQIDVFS

“Pre-mRNA-splicing factor 8 (Saccharomyces cerevisiae), P33334 H2387P”: the “effect of a mutation on the interaction” value is given as “disrupting interaction strength”.

On to “Pre-mRNA-splicing factor 8 (Saccharomyces cerevisiae), P33334 H2387R”, for which the “effect of a mutation on the interaction” value was “disrupting interaction strength”.

As for “Pre-mRNA-splicing factor 8 (Saccharomyces cerevisiae), P33334 R2388G”, the “effect of a mutation on the interaction” value is recorded as “disrupting interaction strength”.

For the substance “Pre-mRNA-splicing factor 8 (Saccharomyces cerevisiae), P33334 R2388K”, the “effect of a mutation on the interaction” value was “disrupting interaction strength”.
